The text below walks through data of PMC10504544, “1-deoxy-D-xylulose-5-phosphate synthase from Pseudomonas aeruginosa and Klebsiella pneumoniae reveals conformational changes upon cofactor binding” (The Journal of Biological Chemistry, 2023).

For data set [1], the system named is Cc1ncc(C[n+]2csc(CCO[P@](=O)(O)OP(=O)(O)O)c2C)c(N)n1. In words: purified protein. It is filed as biochemical, Pseudomonas aeruginosa. The following applies: varied: cofactor.
The subject of data set [2] is CC(=O)C(=O)O. Description: steady-state kinetics (Km), IspC-coupled assay. It is filed as biochemical, Klebsiella pneumoniae. The following applies: ThDP, Mg2+.
For data set [3], the system named is O=CC(O)COP(=O)(O)O. Description: steady-state kinetics (Km), IspC-coupled assay. It is filed as biochemical, Klebsiella pneumoniae. The settings on record: ThDP, Mg2+.
Data set [4] deals with Cc1ncc(C[n+]2csc(CCO[P@](=O)(O)OP(=O)(O)O)c2C)c(N)n1. Description: steady-state kinetics (Km). It is filed as biochemical, Klebsiella pneumoniae. The following applies: Mg2+ active site; diphosphate in asparagine-rich region with H bond from Ser52; varied: cofactor.

What is called Km is the concentration of substrate that gives half-maximal velocity. Consider “1-deoxy-D-xylulose-5-phosphate synthase (paDXPS) (Pseudomonas aeruginosa LESB58; DEL206-245/INS205GGGGGG)”, for which the Km in data set [1] was found to be 0.0965 ± 0.014 µM.

Consider “1-deoxy-D-xylulose-5-phosphate synthase (kpDXPS) (Klebsiella pneumoniae subsp. pneumoniae MGH 78578; DEL197-240/INS196GGGGGG)”, for which the results for the Km in data set [2], in data set [3] and in data set [4] were 113 ± 34 µM, 170 ± 43 µM and 0.11 ± 0.017 µM, respectively.
